Laboratory results reported in the array DNA melting data of Ke et al..

Experiment: melting temperature; melt of duplexes
Details: sodium 0.0675 M; strand 1 µM

| Substance | Tm |
| --- | --- |
| CGACGTGCGGTATGTGCTG+CAGCACATTCAGCACGTCG ((((((((.(.((((((((+)))))))).).)))))))) | 54.2 °C |
| CGACGTGCCACATGTGCTG+CAGCACATTTTGCACGTCG ((((((((.(.((((((((+)))))))).).)))))))) | 48 °C |
| CGACGTGCCAGATGTGCTG+CAGCACATCGGGCACGTCG (((((((((.(((((((((+))))))))).))))))))) | 62.2 °C |
| CGACGTGCACGATGTGCTG+CAGCACATGTTGCACGTCG (((((((((..((((((((+))))))))..))))))))) | 49.9 °C |
| CGACGTGCGTAATGTGCTG+CAGCACATAACGCACGTCG ((((((((((.((((((((+)))))))).)))))))))) | 59.1 °C |
| CGACGTGCAGGATGTGCTG+CAGCACATGTCGCACGTCG ((((((((...((((((((+))))))))...)))))))) | 51.4 °C |
| CGACGTGCCGCATGTGCTG+CAGCACATAAAGCACGTCG ((((((((...((((((((+))))))))...)))))))) | 50.1 °C |
| CGACGTGCTATATGTGCTG+CAGCACATGCTGCACGTCG ((((((((...((((((((+))))))))...)))))))) | 48.1 °C |
| CGACGTGCGTAATGTGCTG+CAGCACATTGAGCACGTCG ((((((((..(((((((((+)))))))))..)))))))) | 56.6 °C |
| CGACGTGCCGGATGTGCTG+CAGCACATTCGGCACGTCG ((((((((((.((((((((+)))))))).)))))))))) | 62.4 °C |
| CGACGTGCAGGATGTGCTG+CAGCACATCATGCACGTCG (((((((((.(((((((((+))))))))).))))))))) | 60.2 °C |
| CGACGTGCGGCATGTGCTG+CAGCACATATGGCACGTCG ((((((((...((((((((+))))))))...)))))))) | 49.5 °C |
| CGACGTGCCACATGTGCTG+CAGCACATTTGGCACGTCG ((((((((((.((((((((+)))))))).)))))))))) | 57.6 °C |
| CGACGTGCGGAATGTGCTG+CAGCACATCTCGCACGTCG (((((((((..((((((((+))))))))..))))))))) | 55.3 °C |
| CGACGTGCCTGATGTGCTG+CAGCACATGTAGCACGTCG ((((((((...((((((((+))))))))...)))))))) | 49.3 °C |
| CGACGTGCATGATGTGCTG+CAGCACATGCAGCACGTCG ((((((((...((((((((+))))))))...)))))))) | 50.4 °C |
| CGACGTGCCGGATGTGCTG+CAGCACATGATGCACGTCG ((((((((...((((((((+))))))))...)))))))) | 49 °C |
| CGACGTGCCTAATGTGCTG+CAGCACATGTAGCACGTCG ((((((((...((((((((+))))))))...)))))))) | 51.8 °C |
| CGACGTGCGAGATGTGCTG+CAGCACATGCAGCACGTCG ((((((((...((((((((+))))))))...)))))))) | 53.7 °C |
| CGACGTGCTAAATGTGCTG+CAGCACATACTGCACGTCG ((((((((...((((((((+))))))))...)))))))) | 49.7 °C |
| CGACGTGCAATATGTGCTG+CAGCACATCTAGCACGTCG ((((((((.(.((((((((+)))))))).).)))))))) | 49.2 °C |
| CGACGTGCGGCATGTGCTG+CAGCACATGCAGCACGTCG ((((((((.((((((((((+)))))))))).)))))))) | 63.1 °C |
| CGACGTGCAGAATGTGCTG+CAGCACATTCTGCACGTCG (((((((((((((((((((+))))))))))))))))))) | 64.2 °C |
| CGACGTGCGAGATGTGCTG+CAGCACATATTGCACGTCG ((((((((.(.((((((((+)))))))).).)))))))) | 54.4 °C |

| Substance | Tm |
| --- | --- |
| CGACGTGCGCGATGTGCTG+CAGCACATGGCGCACGTCG ((((((((((.((((((((+)))))))).)))))))))) | 62 °C |
| CGACGTGCTCAATGTGCTG+CAGCACATCAAGCACGTCG (((((((((..((((((((+))))))))..))))))))) | 51.6 °C |
| CGACGTGCTTAATGTGCTG+CAGCACATGAGGCACGTCG ((((((((.(.((((((((+)))))))).).)))))))) | 52.7 °C |
| CGACGTGCAGGATGTGCTG+CAGCACATTTCGCACGTCG ((((((((...((((((((+))))))))...)))))))) | 51.1 °C |
| CGACGTGCACAATGTGCTG+CAGCACATTTAGCACGTCG ((((((((..(((((((((+)))))))))..)))))))) | 48.3 °C |
| CGACGTGCTAGATGTGCTG+CAGCACATTGCGCACGTCG ((((((((...((((((((+))))))))...)))))))) | 49.2 °C |
| CGACGTGCGAAATGTGCTG+CAGCACATGGTGCACGTCG ((((((((...((((((((+))))))))...)))))))) | 50.6 °C |
| CGACGTGCCACATGTGCTG+CAGCACATTCAGCACGTCG ((((((((...((((((((+))))))))...)))))))) | 48.9 °C |
| CGACGTGCGCTATGTGCTG+CAGCACATATCGCACGTCG (((((((((.(((((((((+))))))))).))))))))) | 56 °C |
| CGACGTGCTGTATGTGCTG+CAGCACATGAAGCACGTCG (((((((((..((((((((+))))))))..))))))))) | 54.9 °C |
| CGACGTGCCGGATGTGCTG+CAGCACATTAAGCACGTCG ((((((((...((((((((+))))))))...)))))))) | 50.4 °C |
| CGACGTGCCATATGTGCTG+CAGCACATAGCGCACGTCG ((((((((..(((((((((+)))))))))..)))))))) | 50 °C |
| CGACGTGCCTAATGTGCTG+CAGCACATCCGGCACGTCG (((((((((..((((((((+))))))))..))))))))) | 52 °C |
| CGACGTGCTGTATGTGCTG+CAGCACATAATGCACGTCG ((((((((..(((((((((+)))))))))..)))))))) | 51.5 °C |
| CGACGTGCCAGATGTGCTG+CAGCACATACGGCACGTCG (((((((((..((((((((+))))))))..))))))))) | 54.7 °C |
| CGACGTGCCACATGTGCTG+CAGCACATCGTGCACGTCG ((((((((...((((((((+))))))))...)))))))) | 46.3 °C |
| CGACGTGCGATATGTGCTG+CAGCACATGTTGCACGTCG ((((((((.(.((((((((+)))))))).).)))))))) | 54.6 °C |
| CGACGTGCTGCATGTGCTG+CAGCACATACTGCACGTCG ((((((((.(.((((((((+)))))))).).)))))))) | 53 °C |
| CGACGTGCACAATGTGCTG+CAGCACATACCGCACGTCG ((((((((...((((((((+))))))))...)))))))) | 44.6 °C |
| CGACGTGCGAGATGTGCTG+CAGCACATGTTGCACGTCG ((((((((.(.((((((((+)))))))).).)))))))) | 54.3 °C |
| CGACGTGCGCGATGTGCTG+CAGCACATTATGCACGTCG ((((((((...((((((((+))))))))...)))))))) | 50 °C |
| CGACGTGCCAAATGTGCTG+CAGCACATGTTGCACGTCG ((((((((.(.((((((((+)))))))).).)))))))) | 50.5 °C |
| CGACGTGCATTATGTGCTG+CAGCACATGTGGCACGTCG ((((((((...((((((((+))))))))...)))))))) | 49.2 °C |
| CGACGTGCAGGATGTGCTG+CAGCACATGTAGCACGTCG ((((((((...((((((((+))))))))...)))))))) | 50.4 °C |

| Substance | Tm |
| --- | --- |
| CGACGTGCAATATGTGCTG+CAGCACATCTCGCACGTCG ((((((((.(.((((((((+)))))))).).)))))))) | 48.4 °C |
| CGACGTGCTGTATGTGCTG+CAGCACATGGGGCACGTCG ((((((((...((((((((+))))))))...)))))))) | 51.4 °C |
| CGACGTGCAGAATGTGCTG+CAGCACATGTAGCACGTCG ((((((((...((((((((+))))))))...)))))))) | 53.4 °C |
| CGACGTGCTGTATGTGCTG+CAGCACATTACGCACGTCG ((((((((...((((((((+))))))))...)))))))) | 51 °C |
| CGACGTGCAAGATGTGCTG+CAGCACATAGTGCACGTCG (((((((((..((((((((+))))))))..))))))))) | 48.6 °C |
| CGACGTGCACGATGTGCTG+CAGCACATAGGGCACGTCG ((((((((.(.((((((((+)))))))).).)))))))) | 54.9 °C |
| CGACGTGCCCCATGTGCTG+CAGCACATACCGCACGTCG ((((((((...((((((((+))))))))...)))))))) | 45.8 °C |
| CGACGTGCGCTATGTGCTG+CAGCACATGACGCACGTCG (((((((((..((((((((+))))))))..))))))))) | 52.4 °C |
| CGACGTGCTTGATGTGCTG+CAGCACATCCGGCACGTCG ((((((((..(((((((((+)))))))))..)))))))) | 54.6 °C |
| CGACGTGCGTTATGTGCTG+CAGCACATCCAGCACGTCG ((((((((...((((((((+))))))))...)))))))) | 49.6 °C |
| CGACGTGCTCTATGTGCTG+CAGCACATCTCGCACGTCG ((((((((...((((((((+))))))))...)))))))) | 47.1 °C |
| CGACGTGCTGAATGTGCTG+CAGCACATTGGGCACGTCG ((((((((..(((((((((+)))))))))..)))))))) | 53.8 °C |
| CGACGTGCTTTATGTGCTG+CAGCACATGAAGCACGTCG ((((((((((.((((((((+)))))))).)))))))))) | 57.3 °C |
| CGACGTGCAGTATGTGCTG+CAGCACATGAAGCACGTCG ((((((((...((((((((+))))))))...)))))))) | 50.5 °C |
| CGACGTGCCGGATGTGCTG+CAGCACATTCAGCACGTCG ((((((((.(.((((((((+)))))))).).)))))))) | 52.4 °C |
| CGACGTGCGAGATGTGCTG+CAGCACATCTAGCACGTCG ((((((((.((((((((((+)))))))))).)))))))) | 59.7 °C |
| CGACGTGCGCAATGTGCTG+CAGCACATTGCGCACGTCG (((((((((((((((((((+))))))))))))))))))) | 67.1 °C |
| CGACGTGCAGTATGTGCTG+CAGCACATATGGCACGTCG ((((((((..(((((((((+)))))))))..)))))))) | 52.7 °C |
| CGACGTGCCCAATGTGCTG+CAGCACATGTAGCACGTCG ((((((((...((((((((+))))))))...)))))))) | 50.6 °C |
| CGACGTGCTCCATGTGCTG+CAGCACATGAAGCACGTCG (((((((((.(((((((((+))))))))).))))))))) | 57.4 °C |
| CGACGTGCCGCATGTGCTG+CAGCACATAATGCACGTCG ((((((((...((((((((+))))))))...)))))))) | 47.9 °C |
| CGACGTGCAGAATGTGCTG+CAGCACATTAAGCACGTCG ((((((((..(((((((((+)))))))))..)))))))) | 53.3 °C |
| CGACGTGCACAATGTGCTG+CAGCACATCGTGCACGTCG ((((((((((.((((((((+)))))))).)))))))))) | 53 °C |
| CGACGTGCGGCATGTGCTG+CAGCACATAAGGCACGTCG ((((((((...((((((((+))))))))...)))))))) | 51.3 °C |
